Experiment [1] has as its target T1, FcγRIIa R (FcγRIIa, allotype R: Arg at position 131) extracellular domain with C-terminal His tag (human, UniProt P12318 34-217).
T1 construct: extracellular domain; also called FcgRIIa R; 2aR; not shown: His tag at the C terminus
T1 sequence (looked up): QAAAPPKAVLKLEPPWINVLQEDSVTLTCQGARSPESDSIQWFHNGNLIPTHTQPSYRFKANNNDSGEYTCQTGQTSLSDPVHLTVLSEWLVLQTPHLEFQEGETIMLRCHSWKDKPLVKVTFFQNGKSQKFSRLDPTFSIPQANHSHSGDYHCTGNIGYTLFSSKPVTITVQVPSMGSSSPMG
The experiment is described as follows: ratio He/Con_2aR : He/Con_2b (FcgRIIa R over FcgRIIb), SPR Biacore. A general note: In SPR one partner is held on a chip, and binding of the other changes the refractive index at the surface.

Experiment [2] concerns the target T2, FcγRIIb extracellular domain with C-terminal His tag (human, UniProt P31994 43-217).
T2 construct: extracellular domain; also called FcgRIIb; 2b; not shown: His tag at the C terminus
T2 sequence (looked up): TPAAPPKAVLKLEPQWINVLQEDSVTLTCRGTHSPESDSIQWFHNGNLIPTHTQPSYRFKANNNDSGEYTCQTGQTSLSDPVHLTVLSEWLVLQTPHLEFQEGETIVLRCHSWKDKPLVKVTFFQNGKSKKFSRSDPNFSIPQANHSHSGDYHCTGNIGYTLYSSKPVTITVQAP
Put plainly: SPR Biacore, antibody captured, FcgR analyte; vs HeCon Ab GpH7-A5/GpH7-B3/GpL16-k0 = 100.

Experiment [3] has as its target T1, FcγRIIa R (FcγRIIa, allotype R: Arg at …). Described as above.
The target of a further experiment is T3, FcγRIIb (human, UniProt P31994 43-217).
T3 construct: extracellular domain; also called FcgRIIb; 2b; not shown: His tag attached to the C terminus
T3 sequence (looked up): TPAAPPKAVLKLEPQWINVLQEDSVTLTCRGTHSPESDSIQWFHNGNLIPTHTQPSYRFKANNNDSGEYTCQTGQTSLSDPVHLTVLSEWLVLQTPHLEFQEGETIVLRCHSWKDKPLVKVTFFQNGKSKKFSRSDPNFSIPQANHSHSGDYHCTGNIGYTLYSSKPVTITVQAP
The experiment is described as follows: SPR (Biacore), antibody captured, FcγR as analyte; binding relative to GpH7-A5/GpH7-B3/GpL16-k0 = 100.

The target of experiment [4] is T4, FcγRIIa H (human, UniProt P12318 34-217).
T4 construct: extracellular domain; also called FcgRIIa H; FcγRIIa type H; not shown: His tag attached to the C terminus
T4 sequence (looked up): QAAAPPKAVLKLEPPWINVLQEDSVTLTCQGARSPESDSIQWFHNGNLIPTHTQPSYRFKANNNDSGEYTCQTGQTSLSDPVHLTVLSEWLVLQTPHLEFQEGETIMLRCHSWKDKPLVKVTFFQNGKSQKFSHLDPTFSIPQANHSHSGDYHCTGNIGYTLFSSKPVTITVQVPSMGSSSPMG
The description is as above.

Experiment [5] concerns the target T4, FcγRIIa H. Put plainly: ratio of He/Con_2aH to He/Con_2b (relative SPR binding to FcγRIIa H over FcγRIIb).

B1: GpH7-A5/GpH7-B3 variant L235_14T/GpL16-k0 (antibody, human IgG1, kappa)
heavy 1: not shown
heavy 2: not shown
light: DIVMTQSPLSLPVTPGEPASISCQASESLVHSNRNTYLHWYLQKPGQSPQLLIYKVSNRFSGVPDRFSGSGSGTDFTLKISRVEAEDVGVYYCSQNTHVPPTFGQGTKVEIERTVAAPSVFIFPPSDEQLKSGTASVVCLLNNFYPREAKVQWKVDNALQSGNSQESVTEQDSKDSTYSLSSTLTLSKADYEKHKVYACEVTHQGLSSPVTKSFNRGEC
notes: He Ab: alteration in the GpH7-B3 H chain only; also called He Ab
B1: in experiment [1], the “He_2aR/2b (IIaR/IIb)” value was determined as 1.3. This molecule gave a He/Con_2b in experiment [2] of 46.8 control = 100. Besides, in experiment [3], the He/Con_2aR amounted to 60.7 control = 100.

B2: GpH7-A5/GpH7-B3 variant G236_02A/GpL16-k0 (antibody, human IgG1, kappa)
heavy 1: not shown
heavy 2: not shown
light: DIVMTQSPLSLPVTPGEPASISCQASESLVHSNRNTYLHWYLQKPGQSPQLLIYKVSNRFSGVPDRFSGSGSGTDFTLKISRVEAEDVGVYYCSQNTHVPPTFGQGTKVEIERTVAAPSVFIFPPSDEQLKSGTASVVCLLNNFYPREAKVQWKVDNALQSGNSQESVTEQDSKDSTYSLSSTLTLSKADYEKHKVYACEVTHQGLSSPVTKSFNRGEC
notes: Heterodimerized IgG1, mutation in the GpH7-B3 chain only; also called He Ab
Turning to B2, in the experiment with FcγRIIb, the He/Con_2b was 96.5 control = 100. The molecule further displayed a He/Con_2aH with FcγRIIa H [4] of 139 control = 100. Also, the “He_2aH/2b (IIaH/IIb)” value with FcγRIIa H [5] was found to be 1.44.

B3: GpH7-A5/GpH7-B3 variant P238_01G/GpL16-k0 (antibody, human IgG1, kappa)
heavy 1: not shown
heavy 2: not shown
light: DIVMTQSPLSLPVTPGEPASISCQASESLVHSNRNTYLHWYLQKPGQSPQLLIYKVSNRFSGVPDRFSGSGSGTDFTLKISRVEAEDVGVYYCSQNTHVPPTFGQGTKVEIERTVAAPSVFIFPPSDEQLKSGTASVVCLLNNFYPREAKVQWKVDNALQSGNSQESVTEQDSKDSTYSLSSTLTLSKADYEKHKVYACEVTHQGLSSPVTKSFNRGEC
notes: as for B1
Regarding B3, the “He_2aR/2b (IIaR/IIb)” value in experiment [1] came to 1.34. Further, the He/Con_2b in experiment [2] was 56 control = 100. The He/Con_2aR in experiment [3] was determined as 75 control = 100.

B4: GpH7-A5/GpH7-B3 variant L235_19Q/GpL16-k0 (antibody, human IgG1, kappa)
heavy 1: not shown
heavy 2: not shown
light: DIVMTQSPLSLPVTPGEPASISCQASESLVHSNRNTYLHWYLQKPGQSPQLLIYKVSNRFSGVPDRFSGSGSGTDFTLKISRVEAEDVGVYYCSQNTHVPPTFGQGTKVEIERTVAAPSVFIFPPSDEQLKSGTASVVCLLNNFYPREAKVQWKVDNALQSGNSQESVTEQDSKDSTYSLSSTLTLSKADYEKHKVYACEVTHQGLSSPVTKSFNRGEC
notes: as for B1
Consider B4, for which, in experiment [1], the “He_2aR/2b (IIaR/IIb)” value worked out at 1.32. Besides, in experiment [2], the He/Con_2b is 42.6 control = 100. This molecule had a He/Con_2aR in experiment [3] of 56.2 control = 100.

B5: GpH7-A5/GpH7-B3 variant G236_06M/GpL16-k0 (antibody, human IgG1, kappa)
heavy 1: not shown
heavy 2: not shown
light: DIVMTQSPLSLPVTPGEPASISCQASESLVHSNRNTYLHWYLQKPGQSPQLLIYKVSNRFSGVPDRFSGSGSGTDFTLKISRVEAEDVGVYYCSQNTHVPPTFGQGTKVEIERTVAAPSVFIFPPSDEQLKSGTASVVCLLNNFYPREAKVQWKVDNALQSGNSQESVTEQDSKDSTYSLSSTLTLSKADYEKHKVYACEVTHQGLSSPVTKSFNRGEC
notes: as for B2
With B5, the He/Con_2b with FcγRIIb amounted to 45.5 control = 100. In the experiment with FcγRIIa H [4], this molecule returned a He/Con_2aH of 85.7 control = 100. The “He_2aH/2b (IIaH/IIb)” value with FcγRIIa H [5] came out at 1.88.

B6: GpH7-A5/GpH7-B3 variant G236_05P/GpL16-k0 (antibody, human IgG1, kappa)
heavy 1: not shown
heavy 2: not shown
light: DIVMTQSPLSLPVTPGEPASISCQASESLVHSNRNTYLHWYLQKPGQSPQLLIYKVSNRFSGVPDRFSGSGSGTDFTLKISRVEAEDVGVYYCSQNTHVPPTFGQGTKVEIERTVAAPSVFIFPPSDEQLKSGTASVVCLLNNFYPREAKVQWKVDNALQSGNSQESVTEQDSKDSTYSLSSTLTLSKADYEKHKVYACEVTHQGLSSPVTKSFNRGEC
notes: as for B2
Take B6: the He/Con_2b in the experiment with FcγRIIb is 19 control = 100. The molecule also had a He/Con_2aH with FcγRIIa H [4] of 63.5 control = 100. In addition, the “He_2aH/2b (IIaH/IIb)” value with FcγRIIa H [5] stood at 3.34.

B7: GpH7-A5/GpH7-B3 variant P238_02A/GpL16-k0 (antibody, human IgG1, kappa)
heavy 1: not shown
heavy 2: not shown
light: DIVMTQSPLSLPVTPGEPASISCQASESLVHSNRNTYLHWYLQKPGQSPQLLIYKVSNRFSGVPDRFSGSGSGTDFTLKISRVEAEDVGVYYCSQNTHVPPTFGQGTKVEIERTVAAPSVFIFPPSDEQLKSGTASVVCLLNNFYPREAKVQWKVDNALQSGNSQESVTEQDSKDSTYSLSSTLTLSKADYEKHKVYACEVTHQGLSSPVTKSFNRGEC
notes: as for B1
Take B7: the “He_2aR/2b (IIaR/IIb)” value in experiment [1] came out at 1.31. Also, the He/Con_2b in experiment [2] worked out at 57.4 control = 100. In addition, the He/Con_2aR in experiment [3] came to 75.1 control = 100.
